This assay addresses PTH receptor ("PTHIR"). The assay is described as follows: cell-based or functional assay.

B1: PTH(1-84) (ligand)
chain: SVSEIQLMHNLGKHLNSMERVEWLRKKLQDVHNFVALGAPLAPRDAGSQRPRKKEDNVLVESHEKSLGEADKADVNVLTKAKSQ
Consider B1, for which the “cAMP potency (EC50)” value was found to be 0.24 nM.

The record behind these values is patent US20250257112A1 (SHIRE NPS PHARMACEUTICALS, published 2025).
